{"source": "patent US20260193366A1", "about": "(APOGEE THERAPEUTICS, published 2026)", "binders": {"B1": {"name": "Construct 31 (mAb443) with IgG1 YTE LALA heavy chain constant region (antibody, V domains shown)", "VH": "EVQLVESGGGLEQPGGSLRLSCAGSGFTFRDFAMTWVRQAPGKGLEWVSSISGSGGNIYYADSVKGRFTISRDNSKNTLYLQMNSLRAEDTAVYYCAKDRLSVTVRPRYYGLDVWGQGTTVTVSS", "VL": "DIVMTQSPLSLPVTPGEPASISCRSSQSLLYSNGYNYLDWYLQKSGQSPQLLIYLGSNRASGVPDRFSGSGSGTDFTLKISRVEAEDVGFYYCMQALQAPYTFGQGTKLEIK"}}, "key": {"hIL-4Rα on cells [1]": {"target": "T1, hIL-4Rα on cells (human, UniProt P24394 26-825)", "T1 sequence": "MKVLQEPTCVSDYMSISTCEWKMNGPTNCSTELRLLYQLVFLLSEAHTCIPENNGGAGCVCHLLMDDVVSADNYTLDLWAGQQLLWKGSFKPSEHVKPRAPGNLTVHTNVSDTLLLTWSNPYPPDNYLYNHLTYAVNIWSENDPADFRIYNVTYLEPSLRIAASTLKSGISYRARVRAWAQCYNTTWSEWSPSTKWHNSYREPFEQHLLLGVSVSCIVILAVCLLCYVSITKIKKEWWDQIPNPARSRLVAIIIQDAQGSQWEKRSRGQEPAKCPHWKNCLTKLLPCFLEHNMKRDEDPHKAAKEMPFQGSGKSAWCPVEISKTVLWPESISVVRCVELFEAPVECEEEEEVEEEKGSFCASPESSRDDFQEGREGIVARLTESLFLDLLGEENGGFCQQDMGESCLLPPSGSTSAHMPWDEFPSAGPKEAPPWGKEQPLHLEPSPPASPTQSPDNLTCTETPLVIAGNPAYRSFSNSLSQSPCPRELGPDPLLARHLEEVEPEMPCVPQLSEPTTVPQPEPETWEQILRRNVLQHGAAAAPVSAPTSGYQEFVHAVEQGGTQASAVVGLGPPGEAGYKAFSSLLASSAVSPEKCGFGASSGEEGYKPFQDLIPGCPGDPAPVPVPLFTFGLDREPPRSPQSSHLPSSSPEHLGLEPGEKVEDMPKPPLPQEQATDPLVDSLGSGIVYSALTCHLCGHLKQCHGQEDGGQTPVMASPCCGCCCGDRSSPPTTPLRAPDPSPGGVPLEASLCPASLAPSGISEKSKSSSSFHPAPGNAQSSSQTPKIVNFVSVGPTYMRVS", "assay": "cell-based or functional assay"}, "hIL-4Rα on cells [2]": {"target": "T1, hIL-4Rα on cells", "assay": "FACS on HEK293 cells, competitor biotin-hIL-13", "procedure": "(§1) Briefly, HEK293 previously transduced to stably express both hIL-13Rα and hIL-4Rα were cultured and harvested. Cells were seeded at 200,000 cells in 100 uL per well. Cells were washed and the supernatant discarded. […] The cells were stained in this mixture at 4° C. for 1 hour. […] Cells were incubated 4° C. for 1 hour, protected from light. Cells were then washed and the MFI of cells in each well were recorded by FACS using a BD FACSCanto II. Subsequent data were analyzed using GraphPad Prism.\n(§2) The values reflect absolute IC₅₀ measurements."}, "hIL-4Rα on cells [3]": {"target": "T1, hIL-4Rα on cells", "assay": "FACS on HEK293 cells, competitor biotin-hIL-4", "procedure": "as §1, §2"}, "hIL-4Rα on cells [4]": {"target": "T1, hIL-4Rα on cells", "assay": "cell-based or functional assay", "remark": "listed apart in the source"}, "hIL-4Rα on cells [5]": {"target": "T1, hIL-4Rα on cells", "assay": "cell-based or functional assay", "remark": "listed apart in the source"}}, "data": [{"binder": "B1", "values": [{"measurement": "Inhibition of IL-4 induced pSTAT6 IC50", "setting": "hIL-4Rα on cells [1]", "result": 0.452, "unit": "nM"}, {"measurement": "Inhibition of IL-13 induced pSTAT6 IC50", "setting": "hIL-4Rα on cells [1]", "result": 0.916, "unit": "nM"}, {"measurement": "IC50", "setting": "hIL-4Rα on cells [2]", "result": 209, "unit": "pM"}, {"measurement": "IC50", "setting": "hIL-4Rα on cells [3]", "result": 279, "unit": "pM"}, {"measurement": "Inhibition of IL-4 induced TF-1 Proliferation IC50", "setting": "hIL-4Rα on cells [4]", "result": 58, "unit": "pM"}, {"measurement": "Inhibition of IL-13 induced TF-1 Proliferation IC50", "setting": "hIL-4Rα on cells [4]", "result": 175, "unit": "pM"}, {"measurement": "Inhibition of IL-4 induced TARC IC50", "setting": "hIL-4Rα on cells [5]", "result": 228, "unit": "pM"}, {"measurement": "Inhibition of IL-13 induced TARC IC50", "setting": "hIL-4Rα on cells [5]", "result": 456, "unit": "pM"}]}]}
